Results on 1 substance are retold here after US20240116997A1.

Common to all, as to assay: cell-based or functional assay
The target in test [1] is C143 (V11I, C38A, K53A, C76A, C127A) (human) (UniProt Q14116).
The target of test [2] is C162 (K8E, V11I, C38A, C76A, Q103R, C127A) (human) (UniProt Q14116).
Test [3] addresses C155 (V11I, C38A, D40A, K53A, C76A, C127A) (human) (UniProt Q14116).
For test [4], the target named is IL-18 polypeptide SEQ ID NO: 35 (Y01G, F02A, E06K, M51G, K53A, D54A, S55A, T63A) (human) (UniProt Q14116).
IL-18 polypeptide SEQ ID NO: 35 (Y01G, F02A, E06K, M51G, K53A, D54A, S55A, T63A) (human), sequence (Q14116 37-193 Y37G/F38A/E42K/M87G/K89A/D90A/S91A/T99A): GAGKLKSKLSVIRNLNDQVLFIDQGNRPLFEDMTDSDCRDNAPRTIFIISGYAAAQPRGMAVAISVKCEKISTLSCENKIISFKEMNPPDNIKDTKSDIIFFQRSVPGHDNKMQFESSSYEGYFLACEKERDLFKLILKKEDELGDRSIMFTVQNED
Test [5] addresses C146 (SEQ ID NO: 79; V11I, C38A, M51G, K53A, C76A, C127A) (human) (UniProt Q14116).
Test [6] concerns the target C165 (V11I, C38A, S55R, C76A, C127A) (human) (UniProt Q14116).
Test [7] concerns the target IL-18 polypeptide SEQ ID NO: 43 (E06K, K53A, S55A, Y01G) (human) (UniProt Q14116).
In test [8] the target is C154 (V11I, E31A, D37A, C38A, K53A, C76A, C127A) (human) (UniProt Q14116).
C154 (V11I, E31A, D37A, C38A, K53A, C76A, C127A) (human), sequence (Q14116 37-193 V47I/E67A/D73A/C74A/K89A/C112A/C163A): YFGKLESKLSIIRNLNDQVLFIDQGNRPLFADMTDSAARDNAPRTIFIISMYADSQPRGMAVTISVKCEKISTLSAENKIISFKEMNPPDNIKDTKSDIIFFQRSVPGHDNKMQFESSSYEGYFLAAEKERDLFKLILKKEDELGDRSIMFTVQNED
Test [9] deals with IL-18 polypeptide SEQ ID NO: 62 (E6K, C38A, K53A, C127A) (human) (UniProt Q14116).
IL-18 polypeptide SEQ ID NO: 62 (E6K, C38A, K53A, C127A) (human), sequence (Q14116 other isoform, or with tags, fused parts or gaps C38A K53A C127A C38A K53A C127A): as the sequence (Q14116 37-193 V47I/E67A/D73A/C74A/K89A/C112A/C163A) above, with E6K, I11V, A31E, A37D, A76C counted along it
Test [10] addresses IL-18 WT (native sequence, SEQ ID NO: 1) (human) (UniProt Q14116).
Test [11] deals with IL-18 polypeptide SEQ ID NO: 52 (E06K, T63A) (human) (UniProt Q14116).
IL-18 polypeptide SEQ ID NO: 52 (E06K, T63A) (human), sequence (Q14116 37-193 E42K/T99A): as the sequence (Q14116 37-193 Y37G/F38A/E42K/M87G/K89A/D90A/S91A/T99A) above, with G1Y, A2F, G51M, A53K, A54D, A55S counted along it
In test [12] the target is IL-18 polypeptide SEQ ID NO: 41 (K53A, S55A) (human) (UniProt Q14116).
IL-18 polypeptide SEQ ID NO: 41 (K53A, S55A) (human), sequence (Q14116 37-193 K89A/S91A): as the sequence (Q14116 37-193 Y37G/F38A/E42K/M87G/K89A/D90A/S91A/T99A) above, with G1Y, A2F, K6E, G51M, A54D, A63T counted along it
Test [13] deals with C150 (V11I, T34A, C38A, K53A, C76A, C127A) (human) (UniProt Q14116).
C150 (V11I, T34A, C38A, K53A, C76A, C127A) (human), sequence (Q14116 37-193 V47I/T70A/C74A/K89A/C112A/C163A): as the sequence (Q14116 37-193 V47I/E67A/D73A/C74A/K89A/C112A/C163A) above, with A31E, T34A, A37D counted along it
Test [14] deals with IL-18 polypeptide SEQ ID NO: 4 (E6K, C38A, K53A, C68A, M86C) (human) (UniProt Q14116).
IL-18 polypeptide SEQ ID NO: 4 (E6K, C38A, K53A, C68A, M86C) (human), sequence (Q14116 other isoform, or with tags, fused parts or gaps C38A K53A C68A M86C C38A K53A C68A M86C): as the sequence (Q14116 37-193 V47I/E67A/D73A/C74A/K89A/C112A/C163A) above, with E6K, I11V, A31E, A37D, C68A, A76C, M86C, A127C counted along it
For test [15], the target named is C148 (F2A, V11I, C38A, K53A, C76A, C127A) (human) (UniProt Q14116).
C148 (F2A, V11I, C38A, K53A, C76A, C127A) (human), sequence (Q14116 other isoform, or with tags, fused parts or gaps V11I C38A K53A C76A C127A V11I C38A K53A C76A C127A): as the sequence (Q14116 37-193 V47I/E67A/D73A/C74A/K89A/C112A/C163A) above, with F2A, A31E, A37D counted along it
The target in test [16] is C164 (V11I, C38A, S55H, C76A, C127A) (human) (UniProt Q14116).
C164 (V11I, C38A, S55H, C76A, C127A) (human), sequence (Q14116 37-193 V47I/C74A/S91H/C112A/C163A): as the sequence (Q14116 37-193 V47I/E67A/D73A/C74A/K89A/C112A/C163A) above, with A31E, A37D, A53K, S55H counted along it
The target of test [17] is IL-18 polypeptide SEQ ID NO: 51 (T63A) (human) (UniProt Q14116).
IL-18 polypeptide SEQ ID NO: 51 (T63A) (human), sequence (Q14116 37-193 T99A): as the sequence (Q14116 37-193 Y37G/F38A/E42K/M87G/K89A/D90A/S91A/T99A) above, with G1Y, A2F, K6E, G51M, A53K, A54D, A55S counted along it
The target of test [18] is C167 (V11I, C38A, C76A, S105I, C127A) (human) (UniProt Q14116).
C167 (V11I, C38A, C76A, S105I, C127A) (human), sequence (Q14116 37-193 V47I/C74A/C112A/S141I/C163A): as the sequence (Q14116 37-193 V47I/E67A/D73A/C74A/K89A/C112A/C163A) above, with A31E, A37D, A53K, S105I counted along it
In test [19] the target is IL-18 polypeptide SEQ ID NO: 48 (C38S, C68S, C76S, C127S, K70C) (human) (UniProt Q14116).
IL-18 polypeptide SEQ ID NO: 48 (C38S, C68S, C76S, C127S, K70C) (human), sequence (Q14116 37-193 C74S/C104S/K106C/C112S/C163S): as the sequence (Q14116 37-193 V47I/E67A/D73A/C74A/K89A/C112A/C163A) above, with I11V, A31E, A37D, A38S, A53K, C68S, K70C, A76S, A127S counted along it
Test [20] has as its target C156 (V11I, C38A, N41A, K53A, C76A, C127A) (human) (UniProt Q14116).
Test [21] concerns the target IL-18 polypeptide SEQ ID NO: 37 (S55A) (human) (UniProt Q14116).

A value given as a limit tells only on which side of the number the result lay.

IL-18 polypeptide SEQ ID NO: 43 (E06K, K53A, S55A, Y01G) (human), sequence (Q14116 37-193 Y37G/E42K/K89A/S91A): as the sequence (Q14116 37-193 Y37G/F38A/E42K/M87G/K89A/D90A/S91A/T99A) above, with A2F, G51M, A54D, A63T counted along it
C146 (SEQ ID NO: 79; V11I, C38A, M51G, K53A, C76A, C127A) (human), sequence (Q14116 37-193 V47I/C74A/M87G/K89A/C112A/C163A): as the sequence (Q14116 37-193 V47I/E67A/D73A/C74A/K89A/C112A/C163A) above, with A31E, A37D, M51G counted along it
C165 (V11I, C38A, S55R, C76A, C127A) (human), sequence (Q14116 37-193 V47I/C74A/S91R/C112A/C163A): as the sequence (Q14116 37-193 V47I/E67A/D73A/C74A/K89A/C112A/C163A) above, with A31E, A37D, A53K, S55R counted along it
C155 (V11I, C38A, D40A, K53A, C76A, C127A) (human), sequence (Q14116 37-193 V47I/C74A/D76A/K89A/C112A/C163A): as the sequence (Q14116 37-193 V47I/E67A/D73A/C74A/K89A/C112A/C163A) above, with A31E, A37D, D40A counted along it
C156 (V11I, C38A, N41A, K53A, C76A, C127A) (human), sequence (Q14116 37-193 V47I/C74A/N77A/K89A/C112A/C163A): as the sequence (Q14116 37-193 V47I/E67A/D73A/C74A/K89A/C112A/C163A) above, with A31E, A37D, N41A counted along it
C162 (K8E, V11I, C38A, C76A, Q103R, C127A) (human), sequence (Q14116 other isoform, or with tags, fused parts or gaps V11I C38A C76A Q103R C127A V11I C38A C76A Q103R C127A): as the sequence (Q14116 37-193 V47I/E67A/D73A/C74A/K89A/C112A/C163A) above, with K8E, A31E, A37D, A53K, Q103R counted along it
IL-18 polypeptide SEQ ID NO: 37 (S55A) (human), sequence (Q14116 37-193 S91A): as the sequence (Q14116 37-193 Y37G/F38A/E42K/M87G/K89A/D90A/S91A/T99A) above, with G1Y, A2F, K6E, G51M, A53K, A54D, A63T counted along it
C143 (V11I, C38A, K53A, C76A, C127A) (human), sequence (Q14116 37-193 V47I/C74A/K89A/C112A/C163A): as the sequence (Q14116 37-193 V47I/E67A/D73A/C74A/K89A/C112A/C163A) above, with A31E, A37D counted along it
IL-18 WT (native sequence, SEQ ID NO: 1) (human), sequence (Q14116 37-193): as the sequence (Q14116 37-193 V47I/E67A/D73A/C74A/K89A/C112A/C163A) above, with I11V, A31E, A37D, A38C, A53K, A76C, A127C counted along it

For the substance “Fc-fused human IL-18 binding protein isoform a (IL-18BPa) (from UniProt O95998 31-194) (Fc fusion)”, the IC50 (nM), IL-18BPa inhibition of IFNγ induction, NK-92 cells is 7.52 nM in test [1]; 0.823 nM in test [2]; 0.681 nM in test [3]; more than 55 nM in [4]; 47.6 nM in [5]; 0.44 nM in [6]. Also, the IC50 (nM), IL-18BPa inhibition of IFNγ induction, NK-92 cells in test [7] was determined as 27.8 nM; in test [8], 3.23 nM; in test [9] it was 780 nM; in test [10], 1.47 nM; in test [11] it was 47.1 nM; in [12] it was 37.3 nM. Moreover, the IC50 (nM), IL-18BPa inhibition of IFNγ induction, NK-92 cells was 3.62 nM in test [13]; 396 nM in test [14]; 1.17 nM in test [15]; 0.885 nM in test [16]; 0.239 nM in [17]; 0.176 nM in test [18]. For the same substance, the IC50 (nM), IL-18BPa inhibition of IFNγ induction, NK-92 cells is 0.114 nM in test [19], 6.08 nM in [20] and 4.46 nM in [21].
